Measurements reported in patent publication US11466286B2, “Methods and compositions for conferring and/or enhancing herbicide tolerance using protoporphyrinogen oxidase or variant thereof” (FarmHannong Co., Ltd., priority 2016, dated 2022).

These molecules were tested on CyPPO10 (assay: PPO enzyme activity and IC50 by herbicides, CyPPO10 wild type and variants (MBP-PPO fusion)). Conditions: PPO enzyme activity of CyPPO10 protein, wild type = 100.
Type: biochemical, Thermosynechococcus elongatus BP-1
Method: The enzyme activities of PPO protein and PPO protein variants were examined, and inhibition assay by PPO-inhibiting herbicides was conducted. It was confirmed that the PPO protein has low water-solubility, but in case of being expressed as a fusion protein with MBP (maltose binding protein) (MBP-PPO), the PPO protein is able to be stably expressed as water-soluble form. Therefore, the wild type and variant proteins which were expressed in the form of fusion protein with MBP were used in the present test (refer to FIG. 4).
In order to express wild type genes and mutant genes of CyPPO10 and CyPPO13 (refer to Example 1 and Example 4), those genes were introduced to pMAL-c2X vector (refer to FIG. 5) respectively, and then cloned to BL21 (DE3) E. coli (CodonPlus).
The enzyme activity of the purified wild type protein and variant proteins of CyPPO10 and CyPPO13 was measured by the following process.
At first, a substrate of PPO protein, Protoporphyrinogen IX was synthesized. This process was performed in the space where nitrogen gas is streamed. 6 mg of protoporphyrin IX was dissolved in 20% (v/v) EtOH 20 ml, and stirred under dark condition for 30 minutes. The obtained protoporphyrinogen IX solution was put into a 15 ml screw tube in an amount of 800 and flushed with nitrogen gas for 5 minutes. To this, 1 g of sodium amalgam was added and vigorous shaking was performed for 2 minutes. The lid was open to exhaust hydrogen gas in the tube. Thereafter, the lid was closed and incubated for 3 minutes. The […] was filtered using syringe and cellulose membrane filter. To 600 μl of the obtained […], 2M MOPS [3-(N-morpholino)propanesulfonic acid] was added in an amount of approximately 300 thereby adjusting pH to 8.0. To determine the enzyme activity of PPO protein, a reaction mixture was prepared with the following composition (based on 10 ml): 50 mM Tris-Cl (pH 8.0); 50 mM NaCl; 0.04% (v/v) Tween 20; 40 mM glucose (0.072 g); 5 units glucose oxidase (16.6 mg); and 10 units catalase (1 μl).
Two hundred microliters (200 μl) of reaction mixture containing a purified PPO protein were placed in 96 well plates, and preincubated for 30 min at room temperature to reduce the oxygen concentration by the reaction of glucose oxidase-catalase. The mineral oil was layered and then the reaction was initiated by adding the substrate, […], to a final concentration of 50 μM. The reaction proceeded at room temperature for 30 min and the fluorescence of protoporphyrin IX was measured using Microplate reader (Sense, Hidex) (excitation: 405 nm; emission: 633 nm). To calculate the PPO enzyme activity, protoporphyrinogen IX solution was kept open in the air to oxidize the solution (overnight). To this, 2.7N HCl was added, and the absorbance at 408 nm was measured. A standard curve was generated using standard protoporphyrin IX, and the PPO activity was measured by calibration of protoporphyrin IX using the standard curve of protoporphyrin IX.
The final concentration of each herbicide was as follows: […]

| Molecule | Activity (%) |
| --- | --- |
| CyPPO10 F360V: CyPPO10 (SEQ ID NO: 2) PPO variant (protein, Synthetic CyPPO10) MIEVDVAIVGGGLSGLSVAWRLQRSAPHYSGVLLEASDRLGGNITTQAAEGFVWELGPNSFAPTPALLQLIAEVGLHSELIRGDRHLPRYIYWRGELYPLEPTRPLALATSNLLSPWGKVRAALGALGFVPPYLGSGDESVDSFFRRHLGQEVAERLVAPFVSGVYAGDPQQLSAAAAFRRIAQLEKLGGSLIAGALRLRRQQPPQPKPPAQVQMRPGELGSFREGLAALPRAIAQQLKAPLHLQTPVEAITPEPKGGYLLRSGEQTWHARSVVLATPAYQTAELVAPFQPAIARALATIPYPTVACVVLAYPAGLGRSVRPGFGVLVPRGQGIRTLGTIWSSCLFPQRTPAGWQVFTSVIGGATDPDLASLREEAIVEQVQQDLTRLLDLPAAKARLLGMKVWRRAIPQYIVGYPQQWQQVTHALTQTPGLFLCSNYAEGVALGDRVEHGNRTAAAVAAYLAGGQS | 56% |
| CyPPO10 V165S + F360M: CyPPO10 (SEQ ID NO: 2) PPO variant (protein, Synthetic CyPPO10) MIEVDVAIVGGGLSGLSVAWRLQRSAPHYSGVLLEASDRLGGNITTQAAEGFVWELGPNSFAPTPALLQLIAEVGLHSELIRGDRHLPRYIYWRGELYPLEPTRPLALATSNLLSPWGKVRAALGALGFVPPYLGSGDESVDSFFRRHLGQEVAERLVAPFVSGSYAGDPQQLSAAAAFRRIAQLEKLGGSLIAGALRLRRQQPPQPKPPAQVQMRPGELGSFREGLAALPRAIAQQLKAPLHLQTPVEAITPEPKGGYLLRSGEQTWHARSVVLATPAYQTAELVAPFQPAIARALATIPYPTVACVVLAYPAGLGRSVRPGFGVLVPRGQGIRTLGTIWSSCLFPQRTPAGWQVFTSMIGGATDPDLASLREEAIVEQVQQDLTRLLDLPAAKARLLGMKVWRRAIPQYIVGYPQQWQQVTHALTQTPGLFLCSNYAEGVALGDRVEHGNRTAAAVAAYLAGGQS | 78% |
| CyPPO10 N59T + F360V: CyPPO10 (SEQ ID NO: 2) PPO variant (protein, Synthetic CyPPO10) MIEVDVAIVGGGLSGLSVAWRLQRSAPHYSGVLLEASDRLGGNITTQAAEGFVWELGPTSFAPTPALLQLIAEVGLHSELIRGDRHLPRYIYWRGELYPLEPTRPLALATSNLLSPWGKVRAALGALGFVPPYLGSGDESVDSFFRRHLGQEVAERLVAPFVSGVYAGDPQQLSAAAAFRRIAQLEKLGGSLIAGALRLRRQQPPQPKPPAQVQMRPGELGSFREGLAALPRAIAQQLKAPLHLQTPVEAITPEPKGGYLLRSGEQTWHARSVVLATPAYQTAELVAPFQPAIARALATIPYPTVACVVLAYPAGLGRSVRPGFGVLVPRGQGIRTLGTIWSSCLFPQRTPAGWQVFTSVIGGATDPDLASLREEAIVEQVQQDLTRLLDLPAAKARLLGMKVWRRAIPQYIVGYPQQWQQVTHALTQTPGLFLCSNYAEGVALGDRVEHGNRTAAAVAAYLAGGQS | 62% |
| CyPPO10 R89A + F360M: CyPPO10 (SEQ ID NO: 2) PPO variant (protein, Synthetic CyPPO10) MIEVDVAIVGGGLSGLSVAWRLQRSAPHYSGVLLEASDRLGGNITTQAAEGFVWELGPNSFAPTPALLQLIAEVGLHSELIRGDRHLPAYIYWRGELYPLEPTRPLALATSNLLSPWGKVRAALGALGFVPPYLGSGDESVDSFFRRHLGQEVAERLVAPFVSGVYAGDPQQLSAAAAFRRIAQLEKLGGSLIAGALRLRRQQPPQPKPPAQVQMRPGELGSFREGLAALPRAIAQQLKAPLHLQTPVEAITPEPKGGYLLRSGEQTWHARSVVLATPAYQTAELVAPFQPAIARALATIPYPTVACVVLAYPAGLGRSVRPGFGVLVPRGQGIRTLGTIWSSCLFPQRTPAGWQVFTSMIGGATDPDLASLREEAIVEQVQQDLTRLLDLPAAKARLLGMKVWRRAIPQYIVGYPQQWQQVTHALTQTPGLFLCSNYAEGVALGDRVEHGNRTAAAVAAYLAGGQS | 67% |
| CyPPO10 R89A + F360L: CyPPO10 (SEQ ID NO: 2) PPO variant (protein, Synthetic CyPPO10) MIEVDVAIVGGGLSGLSVAWRLQRSAPHYSGVLLEASDRLGGNITTQAAEGFVWELGPNSFAPTPALLQLIAEVGLHSELIRGDRHLPAYIYWRGELYPLEPTRPLALATSNLLSPWGKVRAALGALGFVPPYLGSGDESVDSFFRRHLGQEVAERLVAPFVSGVYAGDPQQLSAAAAFRRIAQLEKLGGSLIAGALRLRRQQPPQPKPPAQVQMRPGELGSFREGLAALPRAIAQQLKAPLHLQTPVEAITPEPKGGYLLRSGEQTWHARSVVLATPAYQTAELVAPFQPAIARALATIPYPTVACVVLAYPAGLGRSVRPGFGVLVPRGQGIRTLGTIWSSCLFPQRTPAGWQVFTSLIGGATDPDLASLREEAIVEQVQQDLTRLLDLPAAKARLLGMKVWRRAIPQYIVGYPQQWQQVTHALTQTPGLFLCSNYAEGVALGDRVEHGNRTAAAVAAYLAGGQS | 30% |
| CyPPO10 V165S + F360L: CyPPO10 (SEQ ID NO: 2) PPO variant (protein, Synthetic CyPPO10) MIEVDVAIVGGGLSGLSVAWRLQRSAPHYSGVLLEASDRLGGNITTQAAEGFVWELGPNSFAPTPALLQLIAEVGLHSELIRGDRHLPRYIYWRGELYPLEPTRPLALATSNLLSPWGKVRAALGALGFVPPYLGSGDESVDSFFRRHLGQEVAERLVAPFVSGSYAGDPQQLSAAAAFRRIAQLEKLGGSLIAGALRLRRQQPPQPKPPAQVQMRPGELGSFREGLAALPRAIAQQLKAPLHLQTPVEAITPEPKGGYLLRSGEQTWHARSVVLATPAYQTAELVAPFQPAIARALATIPYPTVACVVLAYPAGLGRSVRPGFGVLVPRGQGIRTLGTIWSSCLFPQRTPAGWQVFTSLIGGATDPDLASLREEAIVEQVQQDLTRLLDLPAAKARLLGMKVWRRAIPQYIVGYPQQWQQVTHALTQTPGLFLCSNYAEGVALGDRVEHGNRTAAAVAAYLAGGQS | 59% |
| CyPPO10 R89A + F360I: CyPPO10 (SEQ ID NO: 2) PPO variant (protein, Synthetic CyPPO10) MIEVDVAIVGGGLSGLSVAWRLQRSAPHYSGVLLEASDRLGGNITTQAAEGFVWELGPNSFAPTPALLQLIAEVGLHSELIRGDRHLPAYIYWRGELYPLEPTRPLALATSNLLSPWGKVRAALGALGFVPPYLGSGDESVDSFFRRHLGQEVAERLVAPFVSGVYAGDPQQLSAAAAFRRIAQLEKLGGSLIAGALRLRRQQPPQPKPPAQVQMRPGELGSFREGLAALPRAIAQQLKAPLHLQTPVEAITPEPKGGYLLRSGEQTWHARSVVLATPAYQTAELVAPFQPAIARALATIPYPTVACVVLAYPAGLGRSVRPGFGVLVPRGQGIRTLGTIWSSCLFPQRTPAGWQVFTSIIGGATDPDLASLREEAIVEQVQQDLTRLLDLPAAKARLLGMKVWRRAIPQYIVGYPQQWQQVTHALTQTPGLFLCSNYAEGVALGDRVEHGNRTAAAVAAYLAGGQS | 38% |
| CyPPO10 V165S + F360I: CyPPO10 (SEQ ID NO: 2) PPO variant (protein, Synthetic CyPPO10) MIEVDVAIVGGGLSGLSVAWRLQRSAPHYSGVLLEASDRLGGNITTQAAEGFVWELGPNSFAPTPALLQLIAEVGLHSELIRGDRHLPRYIYWRGELYPLEPTRPLALATSNLLSPWGKVRAALGALGFVPPYLGSGDESVDSFFRRHLGQEVAERLVAPFVSGSYAGDPQQLSAAAAFRRIAQLEKLGGSLIAGALRLRRQQPPQPKPPAQVQMRPGELGSFREGLAALPRAIAQQLKAPLHLQTPVEAITPEPKGGYLLRSGEQTWHARSVVLATPAYQTAELVAPFQPAIARALATIPYPTVACVVLAYPAGLGRSVRPGFGVLVPRGQGIRTLGTIWSSCLFPQRTPAGWQVFTSIIGGATDPDLASLREEAIVEQVQQDLTRLLDLPAAKARLLGMKVWRRAIPQYIVGYPQQWQQVTHALTQTPGLFLCSNYAEGVALGDRVEHGNRTAAAVAAYLAGGQS | 63% |
